The results in this text go back to patent publication US20240238433A1 (published 2024).

Among the targets are CEACAM5 (UniProt P06731); CEACAM5 N256A (UniProt P06731); CEACAM6 N256A (UniProt P40199); CEACAM6 (UniProt P40199).
What all share (assay): BLI
In experiment [1] the target is T1, In-house produced Avi-tagged N256A mutated CEACAM5 (UniProt P06731 35-685).
T1 chain: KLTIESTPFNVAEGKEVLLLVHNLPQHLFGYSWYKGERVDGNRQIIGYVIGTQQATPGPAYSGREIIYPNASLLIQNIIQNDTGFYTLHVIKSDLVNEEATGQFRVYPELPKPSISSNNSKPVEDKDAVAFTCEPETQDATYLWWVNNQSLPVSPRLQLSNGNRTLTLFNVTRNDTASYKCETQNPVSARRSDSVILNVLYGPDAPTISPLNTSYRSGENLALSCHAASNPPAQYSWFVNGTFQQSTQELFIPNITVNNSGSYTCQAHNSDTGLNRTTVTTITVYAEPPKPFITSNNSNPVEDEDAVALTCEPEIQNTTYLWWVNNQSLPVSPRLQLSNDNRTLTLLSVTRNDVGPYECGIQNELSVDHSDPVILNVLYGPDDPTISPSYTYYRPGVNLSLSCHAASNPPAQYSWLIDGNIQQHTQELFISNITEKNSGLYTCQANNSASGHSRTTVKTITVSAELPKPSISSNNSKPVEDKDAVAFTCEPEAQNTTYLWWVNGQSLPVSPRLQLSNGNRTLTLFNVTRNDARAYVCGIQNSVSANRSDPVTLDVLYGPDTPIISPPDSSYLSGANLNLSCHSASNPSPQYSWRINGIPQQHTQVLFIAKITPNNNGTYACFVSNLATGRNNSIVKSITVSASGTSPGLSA

Experiment [2] deals with T2, In-house produced Avi-tagged CEACAM5 (UniProt P06731 35-685).
T2 chain: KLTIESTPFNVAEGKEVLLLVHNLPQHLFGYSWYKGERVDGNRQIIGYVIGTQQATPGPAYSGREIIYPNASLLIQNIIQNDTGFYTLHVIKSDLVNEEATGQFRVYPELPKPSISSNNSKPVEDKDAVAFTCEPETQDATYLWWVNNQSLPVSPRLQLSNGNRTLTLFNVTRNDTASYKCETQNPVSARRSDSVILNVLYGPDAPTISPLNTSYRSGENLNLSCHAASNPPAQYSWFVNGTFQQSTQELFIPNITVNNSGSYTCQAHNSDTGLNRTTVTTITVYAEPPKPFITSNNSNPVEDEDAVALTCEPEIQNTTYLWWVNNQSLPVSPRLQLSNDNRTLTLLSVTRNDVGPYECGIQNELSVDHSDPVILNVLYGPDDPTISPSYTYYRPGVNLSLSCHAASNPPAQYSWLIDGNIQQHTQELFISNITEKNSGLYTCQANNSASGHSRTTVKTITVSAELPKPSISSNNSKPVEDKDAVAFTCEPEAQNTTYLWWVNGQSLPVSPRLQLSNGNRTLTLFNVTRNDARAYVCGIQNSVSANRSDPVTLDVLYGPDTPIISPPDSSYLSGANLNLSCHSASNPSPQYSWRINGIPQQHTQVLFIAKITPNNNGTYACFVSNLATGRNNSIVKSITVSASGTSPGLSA

Experiment [3] has as its target T3, In-house produced Avi-tagged CEACAM6 (UniProt P40199 35-320).
T3 chain: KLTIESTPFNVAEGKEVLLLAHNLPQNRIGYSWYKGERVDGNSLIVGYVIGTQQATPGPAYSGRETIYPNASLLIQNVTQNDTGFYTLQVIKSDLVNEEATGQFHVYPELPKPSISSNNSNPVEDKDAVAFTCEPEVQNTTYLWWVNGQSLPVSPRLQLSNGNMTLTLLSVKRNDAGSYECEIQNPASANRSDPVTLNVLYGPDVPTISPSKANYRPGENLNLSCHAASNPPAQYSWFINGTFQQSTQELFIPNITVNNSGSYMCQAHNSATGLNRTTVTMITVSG

For experiment [4], the target named is T4, In-house produced Avi-tagged N256A mutated CEACAM6 (UniProt P40199 35-320).
T4 chain: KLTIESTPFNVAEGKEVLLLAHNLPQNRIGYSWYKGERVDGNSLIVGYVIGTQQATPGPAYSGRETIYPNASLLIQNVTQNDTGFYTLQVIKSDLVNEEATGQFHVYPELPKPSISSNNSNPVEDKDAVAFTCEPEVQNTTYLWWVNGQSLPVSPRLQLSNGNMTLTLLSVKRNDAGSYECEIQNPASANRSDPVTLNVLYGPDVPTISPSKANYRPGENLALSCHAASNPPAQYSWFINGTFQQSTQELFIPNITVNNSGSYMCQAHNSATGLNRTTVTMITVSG

Where only a bound is given, the exact number is not on record here.

Consider NEO-201, for which the Kd (commonly the constant that tells how readily two partners part at equilibrium) in the experiment with CEACAM5 worked out at 0.321 nM; with CEACAM5 N256A, 0.401 nM; with CEACAM6 N256A, 0.217 nM; with CEACAM6, 0.126 nM.
For Tusamitamab, the values for the Kd with CEACAM5 and with CEACAM5 N256A were 1.37 nM and 1.27 nM, respectively.

B1: AB1 antibody (antibody, V domains shown)
VH: QVQLVQSGAEVKKPGASVKVSCKASGNTFTSYVMHWVRQAPGQGLEWMGYINPYNDGTKYNEKFKGRVTMTRDTSTSTVYMELSSLRSEDTAVYYCARSTARATPYFYAMDYWGQGTLVTVSS
VL: DIVMTQSPDSLAVSLGERATINCKSSQSLLWSVNQNSYLSWYQLKPGQPPKLLLYGASIRESGVPDRFSGSGSGTDFTLTISSLQAEDVAVYYCQHNHGSFLPYTFGGGTKLEIKR
Regarding B1, the Kd in experiment [1] is over 200 nM; in experiment [2], 63.8 nM; in experiment [3] it was 71.5 nM; in experiment [4] it was 3180 nM.

B2: EBC-123 (antibody, V domains shown)
VH: QVQLVQSGAEVKKPGASVKVSCKASGNTFTSYVMHWVRQAPGQGLEWMGYINPYNDGTKYNEKFKGRVTMTRDTSTSTVYMELSSLRSEDTAVYYCARSTARATPYFYAMDYWGQGTLVTVSS
VL: DIVMTQSPDSLAVSLGERATINCKSSQSLLWSVNQNSYLSWYQLKPGQPPKLLLYGASIRESGVPDRFSGSGSGTDFTLTISSLQAEDVAVYYCQHNHGSFLPYTFGGGTKLEIKR
For the molecule B2, the Kd in experiment [1] is 0.555 nM; in experiment [2], 0.775 nM; in experiment [3], 1.57 nM; in experiment [4], 1.61 nM.
